Experimental data from US20260232769A1 (WUXI BIOLOGICS IRELAND, published 2026).
Residue numbers refer to the chain shown, from its start. Values belong to the binder of their own block, whether it stands above or below them.

Legend:
Assay in all cases: cell-based or functional assay
[1] = target: IL-2Rα/β/γc complex (high affinity receptor) on human activated CD8+ T cells (human) (UniProt P01589)
[2] = target: T1, IL-2Rα/β/γc complex (high affinity receptor) on human activated CD8+ T cells (human, UniProt P01589 22-272; P14784 27-551; P31785 23-369)
T1 sequence (looked up) 1: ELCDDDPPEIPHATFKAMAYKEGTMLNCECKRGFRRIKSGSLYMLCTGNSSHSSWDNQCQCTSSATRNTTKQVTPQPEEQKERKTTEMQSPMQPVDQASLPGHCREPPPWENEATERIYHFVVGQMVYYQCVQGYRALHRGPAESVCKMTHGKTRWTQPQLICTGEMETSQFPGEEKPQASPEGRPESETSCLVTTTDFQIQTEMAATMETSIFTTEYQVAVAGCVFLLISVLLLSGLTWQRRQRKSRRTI
T1 sequence (looked up) 2: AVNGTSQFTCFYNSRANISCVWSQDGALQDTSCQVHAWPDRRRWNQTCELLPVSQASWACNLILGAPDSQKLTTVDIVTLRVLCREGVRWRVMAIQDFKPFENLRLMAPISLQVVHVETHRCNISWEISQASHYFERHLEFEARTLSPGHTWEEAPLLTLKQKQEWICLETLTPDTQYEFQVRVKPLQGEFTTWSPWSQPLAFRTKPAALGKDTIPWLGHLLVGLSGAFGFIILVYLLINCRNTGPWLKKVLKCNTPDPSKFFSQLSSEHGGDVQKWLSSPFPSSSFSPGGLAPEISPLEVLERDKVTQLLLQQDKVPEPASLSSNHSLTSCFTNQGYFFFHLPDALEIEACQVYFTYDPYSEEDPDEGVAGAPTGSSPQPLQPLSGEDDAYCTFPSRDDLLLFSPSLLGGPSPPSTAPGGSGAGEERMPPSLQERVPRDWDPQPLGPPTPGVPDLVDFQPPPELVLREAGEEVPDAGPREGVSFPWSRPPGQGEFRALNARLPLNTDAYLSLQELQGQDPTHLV
T1 sequence (looked up) 3: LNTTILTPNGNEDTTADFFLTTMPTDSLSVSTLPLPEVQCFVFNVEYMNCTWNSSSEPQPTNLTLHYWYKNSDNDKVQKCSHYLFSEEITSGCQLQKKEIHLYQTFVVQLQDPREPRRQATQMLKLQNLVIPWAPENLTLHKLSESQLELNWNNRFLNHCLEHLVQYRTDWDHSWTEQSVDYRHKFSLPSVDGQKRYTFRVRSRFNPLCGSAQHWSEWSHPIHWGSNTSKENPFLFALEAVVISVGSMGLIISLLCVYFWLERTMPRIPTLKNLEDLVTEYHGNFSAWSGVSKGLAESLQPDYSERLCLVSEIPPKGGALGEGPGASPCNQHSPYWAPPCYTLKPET

[3] = target: T2, IL-2Rβ/γc complex (intermediate affinity receptor) on primary human CD8+ T cells (human, UniProt P14784 27-551; P31785 23-369)
T2 sequence (looked up) 1: T1 sequence (looked up) 2
T2 sequence (looked up) 2: T1 sequence (looked up) 3

[4] = target: T3, IL-2Rα (CD25) on human activated CD8+ T cells (human, UniProt P01589 22-272)
T3 sequence (looked up): T1 sequence (looked up) 1

[5] = target: T1, IL-2Rα/β/γc complex (high affinity …); remark: listed apart in the source
[6] = target: PD-1 (on CHO-PD1 engineered cell line; on activated CD8+ T cells) (UniProt Q15116 25-288, limits assumed)

Potency reduction, pSTAT5, human activated CD8+ T [1]: 7.2 fold | pSTAT5 EC50, human activated CD8+ T [1]: 0.12 nM
B1: W3XX115-BMK8 (Fc fusion, part only; not given: Fab heavy and light chains, part only)
chain: APTSSSTKKTQLQLEHLRLDLEMILNGINNYKNPKLTRMLTFKFYMPKKATELKHLQCLEEELKPLEEVLNLAQSKNFHLRPRDLISNINVIVLELKGSETTFMCEYADETATIVEFLNRWITFCKSIISTLTESKYGPPCPPCPAPEFLGGPSVFLFPPKPKDTLMISRTPEVTCVVVDVSQEDPEVQFNWYVDGVEVHNAKTKPREEQFNSTYRVVSVLTVLHQDWLNGKEYKCKVSNKGLPSSIEKTISKAKGQPREPQVYTLPPCQEEMTKNQVSLWCLVKGFYPSDIAVEWESNGQPENNYKTTPPVLDSDGSFFLYSRLTVDKSRWQEGNVFSCSVMHEALHNHYTQKSLSLSLG

Potency reduction, pSTAT5, human activated CD8+ T [2]: 12.4 fold
B2: W3XX115-T3U0.E44-1.uIgG4V322 (Fc fusion)
chain: B1 chain with R18L, E22Q, F42V, Y45A, L72G, K126Q, F149A, L150A
heavy: EIQLQQSGPELVKPGASVKVSCKASGYSFTDYNMYWVKQSHGESLEWIGYIDPYNGGTRYNQKFKGKATLTVDKSSSTAFMHLNSLTSEDSAVYYCARNGHWDGAWFAYWGQGTLVTVSAASTKGPSVFPLAPCSRSTSESTAALGCLVKDYFPEPVTVSWNSGALTSGVHTFPAVLQSSGLYSLSSVVTVPSSSLGTKTYTCNVDHKPSNTKVDKRVESKYGPPCPPCPAPEAAGGPSVFLFPPKPKDTLMISRTPEVTCVVVDVSQEDPEVQFNWYVDGVEVHNAKTKPREEQFNSTYRVVSVLTVLHQDWLNGKEYKCKVSNKGLPSSIEKTISKAKGQPREPQVCTLPPSQEEMTKNQVSLSCAVKGFYPSDIAVEWESNGQPENNYKTTPPVLDSDGSFFLVSRLTVDKSRWQEGNVFSCSVMHEALHNHYTQKSLSLSLG
light: DIQMNQSPSSLSASLGDTITITCHASQNINVWLSWYQQKPGNIPKLLIYKASNLHTGVPSRFSGSRSGTGFTLTISSLQPEDIATYYCHQGQSYPFTFGSGTKLEIKRTVAAPSVFIFPPSDEQLKSGTASVVCLLNNFYPREAKVQWKVDNALQSGNSQESVTEQDSKDSTYSLSSTLTLSKADYEKHKVYACEVTHQGLSSPVTKSFNRGEC

Potency reduction, pSTAT5, human primary CD8+ T [3]: 13.4 fold | pSTAT5 EC50, human primary CD8+ T [3]: 191 nM | PD-1+/PD-1- ratio (pSTAT5 potency, activated versus primary CD8+ T) [4]: 3470 fold | Potency reduction, pSTAT5, human activated CD8+ T (CD25 positive and PD-1 positive) [5]: 2 fold | pSTAT5 EC50, human activated CD8+ T (CD25 positive and PD-1 positive) [5]: 0.055 nM | PD-1+/PD-1- ratio (pSTAT5 potency, activated versus primary CD8+ T) [6]: 3470 fold
B3: W3XX115-T2U3.E44-6.uIgG4V322 (Fc fusion)
chain: APTSSSTKKTQLQLEHLLLDLQMILNGINNYKNPKLTRMLTFKFYMPKKATELKHLQCLEEELKPLEEVLNLAQSKNFHLRPRDLISNINVIVLELKGSETTFMCEYADETATIVEFLNRWITFCQSIIESKYGPPCPPCPAPEAAGGPSVFLFPPKPKDTLMISRTPEVTCVVVDVSQEDPEVQFNWYVDGVEVHNAKTKPREEQFNSTYRVVSVLTVLHQDWLNGKEYKCKVSNKGLPSSIEKTISKAKGQPREPQVYTLPPCQEEMTKNQVSLWCLVKGFYPSDIAVEWESNGQPENNYKTTPPVLDSDGSFFLYSRLTVDKSRWQEGNVFSCSVMHEALHNHYTQKSLSLSLGK
heavy: QVQLVQSGAEVKKPGSSVKVSCKASGFTFTTYYISWVRQAPGQGLEYLGYINMGSGGTNYNEKFKGRVTITADKSTSTAYMELSSLRSEDTAVYYCAIIGYFDYWGQGTMVTVSSASTKGPSVFPLAPCSRSTSESTAALGCLVKDYFPEPVTVSWNSGALTSGVHTFPAVLQSSGLYSLSSVVTVPSSSLGTKTYTCNVDHKPSNTKVDKRVESKYGPPCPPCPAPEAAGGPSVFLFPPKPKDTLMISRTPEVTCVVVDVSQEDPEVQFNWYVDGVEVHNAKTKPREEQFNSTYRVVSVLTVLHQDWLNGKEYKCKVSNKGLPSSIEKTISKAKGQPREPQVCTLPPSQEEMTKNQVSLSCAVKGFYPSDIAVEWESNGQPENNYKTTPPVLDSDGSFFLVSRLTVDKSRWQEGNVFSCSVMHEALHNHYTQKSLSLSLGK
light: DVVMTQSPLSLPVTLGQPASISCRSSQSLLDSDGGTYLYWFQQRPGQSPRRLIYLVSTLGSGVPDRFSGSGSGTDFTLKISRVEAEDVGVYYCMQLTHWPYTFGQGTKLEIKRTVAAPSVFIFPPSDEQLKSGTASVVCLLNNFYPREAKVQWKVDNALQSGNSQESVTEQDSKDSTYSLSSTLTLSKADYEKHKVYACEVTHQGLSSPVTKSFNRGEC

Potency reduction, pSTAT5, human primary CD8+ T [3]: 25.9 fold | pSTAT5 EC50, human primary CD8+ T [3]: 370 nM | PD-1+/PD-1- ratio (pSTAT5 potency, activated versus primary CD8+ T) [4]: 4200 fold | Potency reduction, pSTAT5, human activated CD8+ T (CD25 positive and PD-1 positive) [5]: 3.2 fold | pSTAT5 EC50, human activated CD8+ T (CD25 positive and PD-1 positive) [5]: 0.088 nM | PD-1+/PD-1- ratio (pSTAT5 potency, activated versus primary CD8+ T) [6]: 4200 fold
B4: W3XX115-T2U3.E44-26.uIgG4V322 (Fc fusion)
chain: B3 chain with I129L
heavy: B3 heavy
light: B3 light
